One assay addresses T1, TIGIT (human).
T1 chain: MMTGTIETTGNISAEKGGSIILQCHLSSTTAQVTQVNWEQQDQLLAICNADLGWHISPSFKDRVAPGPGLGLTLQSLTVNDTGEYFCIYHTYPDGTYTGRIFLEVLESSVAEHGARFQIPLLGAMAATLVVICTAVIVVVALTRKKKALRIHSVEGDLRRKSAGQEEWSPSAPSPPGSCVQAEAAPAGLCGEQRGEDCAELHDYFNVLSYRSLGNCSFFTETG
The assay is described as follows: cell-based or functional assay.

For another assay, the target named is T2, human TIGIT (human).
T2 chain: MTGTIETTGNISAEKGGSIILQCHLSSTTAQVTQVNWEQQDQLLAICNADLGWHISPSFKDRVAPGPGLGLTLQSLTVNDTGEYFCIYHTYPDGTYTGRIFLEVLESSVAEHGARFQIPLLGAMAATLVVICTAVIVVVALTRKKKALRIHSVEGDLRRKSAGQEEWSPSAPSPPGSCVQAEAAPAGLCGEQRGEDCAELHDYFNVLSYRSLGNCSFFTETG
The assay is described as follows: flow cytometry, transfected HEK293 cells. Background: Flow cytometry measures light scatter and fluorescence of single cells or particles in a stream.

A further assay deals with PD-1 (human). In words: cell-based or functional assay.
Chain of PD-1 (human) (chain, as listed by the source): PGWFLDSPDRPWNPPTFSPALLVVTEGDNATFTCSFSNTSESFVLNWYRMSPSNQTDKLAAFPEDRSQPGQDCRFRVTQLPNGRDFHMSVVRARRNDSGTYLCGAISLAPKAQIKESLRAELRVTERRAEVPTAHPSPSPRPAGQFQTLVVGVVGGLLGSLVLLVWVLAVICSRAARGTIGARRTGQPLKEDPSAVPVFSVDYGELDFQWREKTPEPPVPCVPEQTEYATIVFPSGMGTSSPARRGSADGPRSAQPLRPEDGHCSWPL

B1: variant CD155 IgV-Fc P18T, M36T, S65A, S67E, L79Q, A81T, F91S, G111R (Fc fusion)
chain: WPPPGTGDVVVQAPTQVTGFLGDSVTLPCYLQVPNTEVTHVSQLTWARHGESGSMAVFHQTQGPAYEESKRLEFVAARQGTELRNASLRMSGLRVEDEGNYTCLFVTFPQRSRSVDIWLRVLGSGGGGSEPKSSDKTHTCPPCPAPEAEGAPSVFLFPPKPKDTLMISRTPEVTCVVVDVSHEDPEVKFNWYVDGVEVHNAKTKPREEQYNSTYRVVSVLTVLHQDWLNGKEYKCKVSNKALPAPIEKTISKAKGQPREPQVYTLPPSRDELTKNQVSLTCLVKGFYPSDIAVEWESNGQPENNYKTTPPVLDSDGSFFLYSKLTVDKSRWQQGNVFSCSVMHEALHNHYTQKSLSLSPGK
Consider B1, for which the “IL-2 luciferase reporter, Normalized Fold Change from CD155-ECD, proteins at 50 nM” value with TIGIT is -0.9 fold.

B2: variant CD155 IgV-Fc V9L, V11M, P18S, N35S, S54G, Q62K, L79P, L104M, T107M, V115M (Fc fusion)
chain: WPPPGTGDLVMQAPTQVSGFLGDSVTLPCYLQVPSMEVTHVSQLTWARHGESGGMAVFHQTKGPSYSESKRLEFVAARPGAELRNASLRMFGLRVEDEGNYTCMFVMFPQGSRSMDIWLRVLGSGGGGSEPKSSDKTHTCPPCPAPEAEGAPSVFLFPPKPKDTLMISRTPEVTCVVVDVSHEDPEVKFNWYVDGVEVHNAKTKPREEQYNSTYRVVSVLTVLHQDWLNGKEYKCKVSNKALPAPIEKTISKAKGQPREPQVYTLPPSRDELTKNQVSLTCLVKGFYPSDIAVEWESNGQPENNYKTTPPVLDSDGSFFLYSKLTVDKSRWQQGNVFSCSVMHEALHNHYTQKSLSLSPGK
For B2, the “MFI at 25 nM” value in the assay with human TIGIT was found to be 3000.

B3: variant CD155 IgV-Fc V9L, P18T, Q62R, L79P, F91S, L104M, G111R (Fc fusion)
chain: WPPPGTGDLVVQAPTQVTGFLGDSVTLPCYLQVPNMEVTHVSQLTWARHGESGSMAVFHQTRGPSYSESKRLEFVAARPGAELRNASLRMSGLRVEDEGNYTCMFVTFPQRSRSVDIWLRVLGSGGGGSEPKSSDKTHTCPPCPAPEAEGAPSVFLFPPKPKDTLMISRTPEVTCVVVDVSHEDPEVKFNWYVDGVEVHNAKTKPREEQYNSTYRVVSVLTVLHQDWLNGKEYKCKVSNKALPAPIEKTISKAKGQPREPQVYTLPPSRDELTKNQVSLTCLVKGFYPSDIAVEWESNGQPENNYKTTPPVLDSDGSFFLYSKLTVDKSRWQQGNVFSCSVMHEALHNHYTQKSLSLSPGK
Consider B3, for which the “IL-2 luciferase reporter, Normalized Fold Change from CD155-ECD, proteins at 50 nM” value in the assay with TIGIT turned out to be 7.4 fold.

B4: Full length ECD of PD-L2 (ligand)
chain: LFTVTVPKELYIIEHGSNVTLECNFDTGSHVNLGAITASLQKVENDTSPHRERATLLEEQLPLGKASFHIPQVQVRDEGQYQCIIIYGVAWDYKYLTLKVKASYRKINTHILKVPETDEVELTCQATGYPLAEVSWPNVSVPANTSHSRTPEGLYQVTSVLRLKPPPGRNFSCVFWNTHVRELTLASIDLQSQMEPRTHPT
For the molecule B4, the “IFN gamma levels pg/ml (MLR)” value in the assay with PD-1 was found to be 1170 pg/mL.
